From US20110262366A1
No end group written: not given here.

Columns and labels:
[1] = biological target: endothelial cell receptor on HAEC (human aortic endothelial cells); assay: competition, 100 µM free TKPPR against 1% BRU-114 microbubbles (competitor) on HAEC, static
[2] = biological target: endothelial cell receptor on HAEC (human aortic endothelial cells); assay: competition, 25 µM free TKPPR against TKPPR-beads (competitor) on HAEC, static, n = 11
[3] = biological target: endothelial cell receptor on HAEC (human aortic endothelial cells); assay: competition, 5 µM free TKPPR against 1% DPPE-GTKPPR microbubbles (competitor) on HAEC, static
[4] = biological target: endothelial cell receptor on HAEC (human aortic endothelial cells); assay: competition, 25 µM free TKPPR against 1% BRU-114 microbubbles (competitor) on HAEC, static
[5] = biological target: endothelial cell receptor on HAEC (human aortic endothelial cells); assay: competition, free TKPPR 10 µM (head prints 10 µmol) against 1% DPPE-GTKPPR microbubbles (competitor) on HAEC, static
[6] = biological target: endothelial cell receptor on HAEC (human aortic endothelial cells); assay: competition, 50 µM free TKPPR against 1% BRU-114 microbubbles (competitor) on HAEC, static
[7] = biological target: endothelial cell receptor on HAEC (human aortic endothelial cells); assay: competition, 2.5 µM free TKPPR against 1% BRU-114 microbubbles (competitor) on HAEC, static
[8] = biological target: endothelial cell receptor on HAEC (human aortic endothelial cells); assay: competition, 50 µM free TKPPR against 1% DPPE-GTKPPR microbubbles (competitor) on HAEC, static
[9] = biological target: endothelial cell receptor on HAEC (human aortic endothelial cells); assay: competition, 5 µM free TKPPR against 1% BRU-114 microbubbles (competitor) on HAEC, static
[10] = biological target: endothelial cell receptor on HAEC (human aortic endothelial cells); assay: competition, free TKPPR 10 µM (head prints 10 µmol) against 5% DPPE-GTKPPR microbubbles (competitor) on HAEC, static
[11] = biological target: endothelial cell receptor on HAEC (human aortic endothelial cells); assay: competition, 25 µM free TKPPR against 2% BRU-114 microbubbles (competitor) on HAEC, static
[12] = biological target: endothelial cell receptor on HAEC (human aortic endothelial cells); assay: competition against 1% DPPE-GTKPPR microbubbles (competitor) on HAEC, static
[13] = biological target: endothelial cell receptor on HAEC (human aortic endothelial cells); assay: competition, 10 µM free TKPPR against 1% DPPE-GTKPPR microbubbles (competitor) on HAEC, static
[14] = biological target: endothelial cell receptor on HAEC (human aortic endothelial cells); assay: competition, 2.5 µM free TKPPR against 1% BRU-292 microbubbles (competitor) on HAEC, static
[15] = biological target: endothelial cell receptor on HAEC (human aortic endothelial cells); assay: competition, 500 µM free TKPPR against TKPPR-beads (competitor) on HAEC, static, n = 11
[16] = biological target: endothelial cell receptor on HAEC (human aortic endothelial cells); assay: competition, 100 µM free TKPPR against 10% BRU-114 microbubbles (competitor) on HAEC, static
[17] = biological target: endothelial cell receptor on HAEC (human aortic endothelial cells); assay: competition, 10 µM free TKPPR against 10% BRU-114 microbubbles (competitor) on HAEC, static
[18] = biological target: endothelial cell receptor on HAEC (human aortic endothelial cells); assay: competition, 50 µM free TKPPR against 1% BRU-114 microbubbles (competitor) on HAEC, static; remark: listed apart in the source
[19] = biological target: endothelial cell receptor on HAEC (human aortic endothelial cells); assay: competition, 100 µM free TKPPR against TKPPR-beads (competitor) on HAEC, static, n = 11
[20] = biological target: endothelial cell receptor on HAEC (human aortic endothelial cells); assay: competition, 10 µM free TKPPR against TKPPR-beads (competitor) on HAEC, static, n = 11
[21] = biological target: endothelial cell receptor on HAEC (human aortic endothelial cells); assay: competition, 200 µM free TKPPR against 10% BRU-114 microbubbles (competitor) on HAEC, static
[22] = biological target: endothelial cell receptor on HAEC (human aortic endothelial cells); assay: competition, 100 µM free TKPPR against 1% DPPE-GTKPPR microbubbles (competitor) on HAEC, static
VEGF receptors on HUVECs = assay: competition with ^125I-VEGF on HUVECs
[23] = biological target: endothelial cell receptor on HAEC (human aortic endothelial cells); assay: competition against 5% DPPE-GTKPPR microbubbles (competitor) on HAEC, static
[24] = biological target: endothelial cell receptor on RAEC (rabbit aortic endothelial cells); assay: competition, 100 µM free TKPPR against 5% DPPE-GTKPPR microbubbles (competitor) on RAEC, static
[25] = biological target: endothelial cell receptor on HAEC (human aortic endothelial cells); assay: competition, free TKPPR 100 µM (head prints 100 µmol) against 1% DPPE-GTKPPR microbubbles (competitor) on HAEC, static
[26] = biological target: endothelial cell receptor on HAEC (human aortic endothelial cells); assay: competition, 100 µM free TKPPR against 1% BRU-114 microbubbles (competitor) on HAEC, static; remark: listed apart in the source
[27] = biological target: endothelial cell receptor on HAEC (human aortic endothelial cells); assay: competition, 50 µM free TKPPR against TKPPR-beads (competitor) on HAEC, static, n = 11
[28] = biological target: endothelial cell receptor on HAEC (human aortic endothelial cells); assay: competition, 10 µM free TKPPR against 1% BRU-292 microbubbles (competitor) on HAEC, static
[29] = biological target: endothelial cell receptor on HAEC (human aortic endothelial cells); assay: competition, 25 µM free TKPPR against 1% BRU-114 microbubbles (competitor) on HAEC, static; remark: listed apart in the source
[30] = biological target: endothelial cell receptor on HAEC (human aortic endothelial cells); assay: competition, 50 µM free TKPPR against 10% BRU-114 microbubbles (competitor) on HAEC, static
[31] = biological target: endothelial cell receptor on HAEC (human aortic endothelial cells); assay: competition, 100 µM free TKPPR against 5% DPPE-GTKPPR microbubbles (competitor) on HAEC, static
[32] = biological target: endothelial cell receptor on HAEC (human aortic endothelial cells); assay: competition, 50 µM free TKPPR against 1% BRU-292 microbubbles (competitor) on HAEC, static

Bubbles Bound in presence of competitor [1]: 17 bubbles | % Inhibition [2]: 50.7% | Average % Inhibition [3]: 45.7% | Bubbles Bound in presence of competitor [4]: 106 bubbles | Bubbles Bound in presence of competitor [5]: 96 bubbles | Bubbles Bound in presence of competitor [6]: 9 bubbles | Bubbles Bound in presence of competitor [7]: 1240 bubbles | Average % Inhibition [8]: 92.7% | Bubbles Bound in presence of competitor [9]: 790 bubbles | Bubbles Bound in presence of competitor [10]: 865 bubbles | Bubbles Bound % (of control binding) [11]: 16 % of control | % inhibition of bubble binding [12]: 82.7% | Average % Inhibition [13]: 79.6% | Bubbles Bound in presence of competitor [14]: 888 bubbles | % Inhibition [15]: 70.6% | Bubbles Bound in presence of competitor [16]: 399 bubbles | Bubbles Bound in presence of competitor [17]: 1090 bubbles | Bubbles Bound in presence of competitor [18]: 56 bubbles | % Inhibition [19]: 62% | % Inhibition [20]: 30.8% | Bubbles Bound in presence of competitor [21]: 66 bubbles | Average % Inhibition [22]: 93.7% | IC50 (VEGF receptors on HUVECs): 250 µM | % more bubbles bound [23]: 19% | RAEC bubbles bound in presence of competitor [24]: 21 bubbles | Bubbles Bound in presence of competitor [25]: 5 bubbles | Bubbles Bound in presence of competitor [26]: 4 bubbles | % Inhibition [27]: 50.5% | Bubbles Bound in presence of competitor [28]: 833 bubbles | Bubbles Bound in presence of competitor [29]: 75 bubbles | Bubbles Bound in presence of competitor [30]: 857 bubbles | HAEC bubbles bound in presence of competitor [31]: 58 bubbles | Bubbles Bound in presence of competitor [32]: 462 bubbles
Binder: TKPPR-OH [TKPPR-OH (L-threonyl-L-lysyl-L-prolyl-L-prolyl-L-arginine)]
